Reference: patent US20180289766A1 (HONG KONG BAPTIST UNIVERSITY, published 2018)
Positions of bridges follow the written chain, without caps; N, C: chain ends. No end group written: not given here.

T1: human galanin receptor 2 (hGalR2) (human, UniProt O43603 1-387)
T1 sequence (looked up): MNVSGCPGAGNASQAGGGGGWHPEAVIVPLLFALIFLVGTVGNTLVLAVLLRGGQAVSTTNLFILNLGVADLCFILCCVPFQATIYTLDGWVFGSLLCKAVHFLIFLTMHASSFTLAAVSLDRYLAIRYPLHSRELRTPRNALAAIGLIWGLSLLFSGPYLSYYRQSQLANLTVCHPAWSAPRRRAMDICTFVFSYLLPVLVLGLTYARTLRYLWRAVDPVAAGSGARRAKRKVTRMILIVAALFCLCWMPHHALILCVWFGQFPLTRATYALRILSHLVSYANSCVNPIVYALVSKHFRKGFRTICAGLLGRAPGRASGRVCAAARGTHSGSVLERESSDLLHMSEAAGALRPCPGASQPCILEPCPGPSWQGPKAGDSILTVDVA

T2: human galanin receptor 3 (hGalR3) (human, UniProt O60755 1-368)
T2 sequence (looked up): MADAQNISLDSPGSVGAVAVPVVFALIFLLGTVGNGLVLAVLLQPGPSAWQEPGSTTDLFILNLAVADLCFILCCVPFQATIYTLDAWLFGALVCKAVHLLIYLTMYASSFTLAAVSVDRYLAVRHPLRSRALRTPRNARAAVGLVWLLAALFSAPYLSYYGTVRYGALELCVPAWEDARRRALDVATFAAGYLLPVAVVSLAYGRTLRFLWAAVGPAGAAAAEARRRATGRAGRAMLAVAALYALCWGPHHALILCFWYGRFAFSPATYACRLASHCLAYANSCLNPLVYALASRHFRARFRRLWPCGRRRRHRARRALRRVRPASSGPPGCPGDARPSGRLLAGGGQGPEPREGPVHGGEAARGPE

T3: human galanin receptor 1 (hGalR1) (human, UniProt P47211 1-349)
T3 sequence (looked up): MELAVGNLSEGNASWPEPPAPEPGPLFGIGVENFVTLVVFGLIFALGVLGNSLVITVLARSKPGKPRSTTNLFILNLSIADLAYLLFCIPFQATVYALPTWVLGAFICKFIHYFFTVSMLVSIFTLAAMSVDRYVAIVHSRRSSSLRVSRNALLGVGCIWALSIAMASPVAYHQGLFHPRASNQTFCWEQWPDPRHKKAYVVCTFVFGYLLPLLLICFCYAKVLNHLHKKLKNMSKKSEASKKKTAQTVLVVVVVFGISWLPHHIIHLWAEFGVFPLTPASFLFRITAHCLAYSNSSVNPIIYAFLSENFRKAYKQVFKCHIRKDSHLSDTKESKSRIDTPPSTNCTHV


What was measured:
Assay in all cases: cell-based or functional assay
[1] = biological target: T1, human galanin receptor 2 (hGalR2)
[2] = biological target: T2, human galanin receptor 3 (hGalR3)
[3] = biological target: T3, human galanin receptor 1 (hGalR1)

Row | EC50, receptor activation (SRE-Luc assay) [1] | Emax, receptor activation (SRE-Luc assay) [1] | EC50, receptor activation (SRE-Luc assay) [2] | Emax, receptor activation (SRE-Luc assay) [2] | Emax, receptor activation (SRE-Luc assay) [3] | EC50, receptor activation (SRE-Luc assay) [3] | Binder
1 | 380 nM | 0.97 relative to hSPX Emax | 390 nM | 1 relative to hSPX Emax |  |  | Ac-CWTPQAMLYLKGCQ-NH2 (disulfide 1-13; SMILES CSCC[C@@H]1NC(=O)[C@H](C)NC(=O)[C@H](CCC(N)=O)NC(=O)[C@@H]2CCCN2C(=O)[C@H]([C@@H](C)O)NC(=O)[C@H](Cc2c[nH]c3ccccc23)NC(=O)[C@@H](NC(C)=O)CSSC[C@@H](C(=O)N[C@@H](CCC(N)=O)C(N)=O)NC(=O)CNC(=O)[C@H](CCCCN)NC(=O)[C@H](CC(C)C)NC(=O)[C@H](Cc2ccc(O)cc2)NC(=O)[C@H](CC(C)C)NC1=O) [LH101 (Ac)]
2 | 480 nM | 1.16 relative to hSPX Emax |  | 0.2 relative to hSPX Emax | 0.22 relative to hGAL Emax |  | Ac-CWTLNSAGYLLGCHAV-NH2 (disulfide 1-13) [LH201 (Ac)]
3 | 1190 nM | 1.09 relative to hSPX Emax | 1560 nM | 1.04 relative to hSPX Emax |  |  | CWTPQAMLYLKGCQ-NH2 (disulfide 1-13; N-terminus assumed; SMILES CSCC[C@@H]1NC(=O)[C@H](C)NC(=O)[C@H](CCC(N)=O)NC(=O)[C@@H]2CCCN2C(=O)[C@H]([C@@H](C)O)NC(=O)[C@H](Cc2c[nH]c3ccccc23)NC(=O)[C@@H](N)CSSC[C@@H](C(=O)N[C@@H](CCC(N)=O)C(N)=O)NC(=O)CNC(=O)[C@H](CCCCN)NC(=O)[C@H](CC(C)C)NC(=O)[C@H](Cc2ccc(O)cc2)NC(=O)[C@H](CC(C)C)NC1=O) [LH101]
4 | 510 nM | 1.05 relative to hSPX Emax | 360 nM | 1 relative to hSPX Emax |  |  | CWTPQAMLYLKGAQ-NH2 [hSPX (C1)]
5 | 1430 nM | 1.08 relative to hSPX Emax | 1500 nM | 0.87 relative to hSPX Emax |  |  | NWTCQAMLYLKGCQ-NH2 (disulfide 4-13; N-terminus assumed; SMILES CSCC[C@@H]1NC(=O)[C@H](C)NC(=O)[C@H](CCC(N)=O)NC(=O)[C@@H](NC(=O)[C@@H](NC(=O)[C@H](Cc2c[nH]c3ccccc23)NC(=O)[C@@H](N)CC(N)=O)[C@@H](C)O)CSSC[C@@H](C(=O)N[C@@H](CCC(N)=O)C(N)=O)NC(=O)CNC(=O)[C@H](CCCCN)NC(=O)[C@H](CC(C)C)NC(=O)[C@H](Cc2ccc(O)cc2)NC(=O)[C@H](CC(C)C)NC1=O) [LH102]
6 | 120 nM | 1 relative to hSPX Emax | > 10000 nM | 0.55 relative to hSPX Emax | 0.35 relative to hGAL Emax | > 10000 nM | CWTLNSAGYLLGCHAV-NH2 (disulfide 1-13; N-terminus assumed; SMILES CC(C)C[C@@H]1NC(=O)[C@H](CC(C)C)NC(=O)[C@H](Cc2ccc(O)cc2)NC(=O)CNC(=O)[C@H](C)NC(=O)[C@H](CO)NC(=O)[C@H](CC(N)=O)NC(=O)[C@H](CC(C)C)NC(=O)[C@H]([C@@H](C)O)NC(=O)[C@H](Cc2c[nH]c3ccccc23)NC(=O)[C@@H](N)CSSC[C@@H](C(=O)N[C@@H](Cc2c[nH]cn2)C(=O)N[C@@H](C)C(=O)N[C@H](C(N)=O)C(C)C)NC(=O)CNC1=O) [LH201]
7 | 470 nM | 0.98 relative to hSPX Emax | 770 nM | 0.91 relative to hSPX Emax |  |  | NWTCQAMLYLKGAQ-NH2 [hSPX (C4)]
8 | 370 nM | 0.87 relative to hSPX Emax | 630 nM | 0.88 relative to hSPX Emax |  |  | NWTPQAMLYLKGCQ-NH2 [hSPX (C13)]
9 | 220 nM | 1.02 relative to hSPX Emax | > 10000 nM | 0.45 relative to hSPX Emax |  |  | GWTLNSAGYLLGPHAV-NH2 [human galanin (1-16), hGAL (1-16)]
10 |  |  |  | 0.68 relative to hSPX Emax |  |  | GWTLNSAGYLLGPHAVGNHRSFSDKNGLTS-NH2 [human galanin (hGAL)]
